Reference: the nanobody polyreactivity screen of Harvey et al. (2022)

Assay: yeast display, Sf9 membrane polyspecificity reagent, FACS + sequencing; frameworks hold sequencing errors
Outline: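 Galactose-induced (36–48 hours) yeast carrying a synthetic nanobody display library were exposed to 10% biotinylated, detergent-solubilized Sf9 membrane reagent at 4 °C for 1 hour. FACS followed streptavidin microbead enrichment, using low and high (top ~1%) gates for expression (anti-HA) and reagent binding (streptavidin). Colony PCR, MiSeq 2 × 250 sequencing and CDR-length filtering followed. Labels for polyreactivity reflect the gate of origin.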

| Sequence | polyreactivity (PSR sort gate) |
| --- | --- |
| QVQLVESGGGLVQAGGSLRLSCSASGLTLAPNAMGWYRQAPGKERELVAAITRSGGDTYYADSVKGRFTISRDNAKNTVYLQMNSLKPEDTAVYYCAADYWFRYGTYEYWGQGTQVTVSS | high polyreactivity |
| QVQLVESGGGLVQAGGSLRLSCAASGITFEPYAMGWDREAPGKEREFVSDNTWSGGSTYYADSVKSRFTISRDNANNTVYLQMNSLKPEDTAVYYCAADGWTSYWSDYWGQGTQVTVSS | low polyreactivity |
| QVQLVESGGGLVQAGGSLRLSCAASGRTFSIYAMGLYRQAPGKERELVAAISNGGRTKYADSVKGRFTISRDNAKNTVYLQMNSLKPEDTAVYYCAAETWYVAYGYWGQGTQVTVSS | high polyreactivity |
| QVQLQESVGGLVQAGGTQRLRCAASGNIFPTDRMGWYRQAPGKELEFVATISHGGSTNYADSVKGRFTISRDNAKNTVYLQMNSLKPEDTAVYYCAVWSLGRWRHYYWGQGTQVTVSS | low polyreactivity |
| QVQLVESGGGLVQAGGSLRLSCAASGYTFGFYTRGWYRQAPGKERELVAGISWSGGSTYYADSVKGRFTISRDNAKNTVYLQMNSLKPEDTAVYYCATRWRGRYDYWGQGTQVTVSS | high polyreactivity |
| QVQLVESGGGLVQAGGSLRLSCAASGRTFVRYTMGWYRQAPVKERELVATISYNGGRTYYADSVKGRFTISRDNAKNTVYLQMNSLKPEDTAVYYCATRLPKSSLHDYWGQGTQVTVSS | high polyreactivity |
| QVQRVESGGGLVQAGGSLRLSCAASASTIVIKAMGCYRQAPGKARELVADLDYRGGSTNYADSVKGRFTISRDNAKNTVYLQMNSLKPEDTAVYYFNKRYVIRRRGYDYWGQGTQVTVSS | low polyreactivity |
| QVQLVESGGGLVQAGGSLRLSCAASGFTFPQYAMGWYIQAPGKERELVASITRRGGSTFYADSVKGRFTISRDNAKNTVYLQMNSLKPEDTAVYYSAAGDYSRSVSRYWYTDYDYWGQGTQVTVSS | high polyreactivity |
| QVQLVESGGGLVQAGGSLRLSCAASGRTFVRYAMGWYRQAPGKERELVAAISWSGATTYYADSVKGRFTISRDNAKNTVYLQMNSLKPEDTAVYYCAARFRRGITYEYWGQGTQVTVSS | high polyreactivity |
| QVQLVESGGGLVQAGGSLRLSCAASGSTFTVYAMGWYRQAPGKERELVAAISWSGGSTYYADSVKGRFTISRDNAKNTVYLQMNSLKPEDTAVYYCAVVIYWRTGEYDYWGQGTQVTVSS | low polyreactivity |
| QVQLVESGGGLVQAGGSILLSCAASGFIFLYYAMGWYRQAPGKERELVADISRGADTKYADTVKGRFTISRDNAKNTVYLQMNSLKPEDTAVYYCATVITTFWFPYPGVELGYWGQGTQVNVSS | low polyreactivity |
| QVQLVESGGGLVQAGGSLRLSCPASGSTFRYYAMAWYRQAPGKERELVAGISSSGGSTYYADSVKGRFTISRDNAKNTVYLQMNSLKPEDTAVYYCNAARGTSRSLAVFADYDYWGQGTQVTVSS | high polyreactivity |
| QVHLQESGGGLVQAGGSLRMSCAASGTIFTEANMGWYRQAPGKERELVATIGLGSTTNYADSVKGRFTISRDNAKNTVYLQMNSLKPEETAVYYCAVVTVDPVGFVYWGQGSQVTVSS | low polyreactivity |
| QVQLVETGGGLFQAGGSLRLSCAPCGSIFFSIAMGWYRQAPGKDRELVAAIDSGASSTYADSVKGRFTSSRDHAKNTVYLQINSLKPEDTAVYYFAADYPATGADGYDYWGQVTQVTVSS | low polyreactivity |
| QDQLVESGGGLVQAGGSLRLSCSASGSIFRDKAMGWYRQAPGKERELVAAISIVGSTSYADSVKGRFTISRDNAKNTVYLQMNSLKPEDTAVYYCAADTFYSYYDMDYWGQGTQVTVSS | low polyreactivity |
| QVQLVESGGGLVQAGGSLRLSCAAYGSTFPSYAMGSNRQAPGKERELVAAISWTGGTTYFADSVKGRFTISRDNAKNTVYLQMNSLKPEDTAVYYCNAKDGGGSQDQAQKRPIIRFDYWGQGSQVTVSS | high polyreactivity |
| QVQLVESGGGLVQAGGSLRLSCAASGSIFFPYAMGWYRKAPGKERGLVAAISWRGGITYYADSVKGRFTISRDNAKNTVYLQMNSLKPADTAVYYCAADGPYTGDGALDYWGQGTQVTVSS | high polyreactivity |
| QVQLVESGGGLVQAGGSLRLSCAASGSIFNKYAMGWYRQAPGKEREFVAAITQGGGRTYYADSVKGRFTISRDNAKNTVYLQMNSLKPEDTAVYYCNAAVYSRARGSYRRRYDYWGQGTQVTVSS | high polyreactivity |
| QVQLVESGGGLVQAGGSLRLSCAASGRTFQVNTMGWYRQAPGKERELVAAISSAGRTYYADSVKGRFTISRDNAQNTVYLQMNSLKPEDTAVYYCAAAWSYSYWKARYGYWGQGTQVTVSS | high polyreactivity |
| QVQLEDSGGGLVQAGGSLRLSCAASGSTFRYYTMGWYRQAPGKEREFVASIRTSGGSTYADSVKGRFTISRDNAKNTVYLQMNSLKPEDTAVYYCAARGGYRYTRYDYWGQGTQVTVSS | high polyreactivity |
| QVQLVESGGGLVQAGGSLRLSCAASGSIFIGYAMGWNRQAPGKERELVAGISSNGGTTYYADSVKGRFTISRDNAKNTVYLQMNSLKPEDTAVYYCATQYYARGYLYDYWGHGTQVTVSS | low polyreactivity |
| QVHLVESGGGLVQAGGILRLSCAASGRTFRYYAMGWYRQAPGKERELVAAISSGGSTNYADSVKGRFTISRDNAKNTVYLQMNSLKPEDSAVYYCADLWSGNKFNYWGQGTQVTVSS | low polyreactivity |

| Sequence | polyreactivity (PSR sort gate) |
| --- | --- |
| QVQLVESGGGLVQAGGSLRLSCAASGGIFDINAMGWYRQAPGKERELVAAISWGGGSTYYADSVKGRFTISRDNAKNTVYLQMNSLKPEDTAVYYCAAESVSIQPTPDEDYWGQGTQVTVSS | high polyreactivity |
| QVQLVESGGGLVQAGGSLRLSCAASGFTFRSYTMGWYRQAPGKERELVASIRYGGGSTYYADSVKGRFTISRDNAKNTVYLQMNSLKPEDTAVYYCSAESAWTSPYDYWGQGTQVTVSS | high polyreactivity |
| PVQLVESGGGLVQAGGSLRLSCAASGFTFPNYAMGWYRQAPGKERELVAVITYSGGSTYYADTVKGRFTISRDNAKNTVYLQMNRLKPEDTAVYYCNARYPGSWYFGQYGGYDYGYWGQGTQVTVSS | low polyreactivity |
| QVQLVESGGGLVQAGGSLRLSCAASGLTFGYYAMGWYRPAPGKEREFVAAISKSGGGTYYADSVKGRFTISRDNAKNTVYLQMNSLKPEDTAVYYCAARWFVGYNYWGQGTQVTVSS | high polyreactivity |
| QVQLQESGGGQVQAGGSLRLSCAASGTIFLYAFKGWYRQAPGKERELVAAIDVGTTTNYADSVKGRFTISRDNAKNTVYLQMNSLKPEDTAVYYCAANLGYLDDLGYWGQGTQVTVSS | low polyreactivity |
| QVQLVESGGGLVQAGGSLRLSCAASGRTFDSYTMGWYRQAPGKERELVAAIRSSGGRTYADSVKGRFTISRDNAKNTVYLQMNSLKPEDTAVYYCAAARSYWAKYYYWGQGTQVTVSS | high polyreactivity |
| QVQLVESGGGLVQAGGSLRLTCAASGNIFSTYAMGWYRQAPGKERELVASISENGGSTYYADSVKGRFSISRDNAKTTVYLQMNSLKPEHTAVYYCNKDYYYPNSWPKYVYWGQGTQVTLSS | low polyreactivity |
| QVQLVESGGGLVQAGGSLRLSCAASGRTSGYYAMGWYRQAPGKERELVAAISGGDSTNYADSVKGRFTFSRDNAKNTVYLQMNSLKPEDTAVYYCAKRTRVSWVPTFDYWGQGTQGTVSS | low polyreactivity |
| QVQLVESGGGLVQAGGSLRLSCAASGFIFGKYAMGWYRQAPGKEREFVAAITGNGGSTYYADSVKGRFTISRDNAKNTVYLQMNSLKPEDTAVYYCNADRGYRRRSGMDYWGQGTQVTVSS | low polyreactivity |
| QVQRVESGGGLVQAGGSLRLSCAPSAIIIYYYAMGCYRQAPGNEMELVAGISYSGGSTYADSVKGRLTISRDNAKNTVYLQMNSLKPEDTAVYFCAADYDYGGHWYDYWGQGTQVTVSS | low polyreactivity |
| QVQLVESGGGFVQAGGSLRLSCAASGSTFDGYAMGWYRQAPGKERELVAAITSSDGSTYYADSVKGRFTISRDNAKNTVYLQMNSLKPEDTAGYSCAAAPDWKDSLPPDMDYWGQGTQVTVSS | low polyreactivity |
| QVQLVESGGGLVQAGGSLRLSCAASGRTFTSYGMGWYRPEPGKERELVAAITRSTGGTYYADSVKGRFTISRDHAKNTVYLQMNSLKPEDTAVYYCNTGPLYSPFDYWGQGTQVTVSS | low polyreactivity |
| QVQLVESGGGLVQAGGSLRLSCAPSGGTFTHNAMGWYRQAPGKEWELVAAISRSGGSTSYADSVKGRFTISRYNAMNTVYLQMNSLKPEDTAVYYCAALISRQRSYSRDYWGQGTQVTVSS | high polyreactivity |
| QVQLVESGGGLVQAGGSLRLSCAASGSTFAIYAMGWDRGAPGKEREVVAAISWRTGSTYYADSVKGRFTISRDNAKNTVYLQMNSLKPEDTAVYYCAAEFWFFAGWAYEYWGHGTQVTVSS | high polyreactivity |
| QVQLVESGGGLVQAGGSHRLSCAASGYIFDYNDMGWSRQAPGKERELVAAITYSRGSTYYADSVKGRFTISRDNAKNTVYLQMNSLQPEDTAVYYCAATFRSRGYSARRYYYWGQGTQVTVST | high polyreactivity |
| QVQLVESGGGLVQAGGSLRLSCAASGYNFGVYAMGWYRQAPGKERELVAAINGGDSTYYADSVKGRFTISRDNAKNTVYLQMNSLKPEDTAVYYCAADPYSVYGGDYWGQGTQVTVSS | low polyreactivity |
| QVQLVESGGGLVQAGGSLRLSCAASGRTFYSNAMGWYRQAPGKERELVAAISRSGGTTYYADSVKGRFTISRDNAKNTVYLQMNSLKPEDTAVYYCNTLRYGTTGKYDYWGQGTQVTVSS | high polyreactivity |
| QVQLVESGGGLVQAGGSLRLSCAASGFTFSYYAMGWYRQAPGKERELVAAITSTGGSTYYADSVKGRFTISRDNAKNTVYLQMNSLKPEDTAVYYCATRGANRTGYKDDYWGQGTQVTVSS | high polyreactivity |
| QVQLVESGGGLVQAGGSLRLSCAASGGTFDTYAMGWYRQAPGKERELVAGIDWSGGSTYYADSVKGRFTISRDNAKNTVYLQMNSLKPEDTAVYYCAADYYYPSQMDYWGQGTQVTVSS | low polyreactivity |
| QVQLGESGGGLVQAGGSLRLSCAASGSTFVRYAMGWYRQAPGKERELVAGISYSGGRTYYADSVKGRFTISRDNAKNTVYLQMNSLKPEDTAVYYCAAEGTTSWWVKYGYWGQGTQVTVSS | low polyreactivity |
| QVQLVESGGGLVQAGGSLRLSCAASGRIFRYNAMGWYRQAPGKERELVASISSGTSTTYADSVKGRFTISRDYAKNTVYLQMNSLKPEDTAVYYCAAVPSYRGYRGGYSNLWYYYWGQGTQVTVSS | high polyreactivity |
